Numbering of substitutions follows the chain as printed.
B1: REGN 5167 Fab (Fab, V domains shown)
VH: QLQLQESGPGLVKPSETLSLTCTVSGGSITSSSYYWAWIRQPPGKGLEWIGKIYYSGSTHYNPSLKSRVTISVDTSKNQFSLKLSSVTAADTAVYYCARVGGHGYGDSAGLAFDIWGQGTMVTVSS
VL: EIVLTQSPGTLSLSPGERATLSCRASQSVSSAFLAWYQQKPGQAPRLLIYGASYRHTGIPDRFSGSGSGTDFTLTISRLEPEDFAVYYCQHYGVGPRTFGGGTKVEIK
notes: also called ACVR1 Fab
B2: REGN 5166 Fab (Fab, V domains shown)
VH: QVQLVESGGGVVQPGRSLRLSCAASGFTFSAYWMHWVRQAPGKGLEWVAVISYDGSNKYYADSVKGRFTISRDHSKNTLYLQMNSLRAEDTAVYYCAKGDAYDSWRILLGGDYYGMDVWGQGTTVTVSS
VL: EIVLTQSPGTLSLSPGERATLSCRASQSVSSSYLAWYQQKPGQAPRPLIYGASSRATGIPDRFSGSGSGTDFTLTISRLEPEDFAVYYCQQGGDAPPYTFGGGTKVEIK
notes: also called ACVR1 Fab

Assays:
[1] = biological target: full length human ACVR1 (amino acids 1-509, R206H, of accession #Q04771) on HEK293/BRE-luc/hACVR1-R206H-clone H2 cells (human) (UniProt Q04771); assay: flow cytometry, secondary antibody alone on HEK293/hACVR1-R206H cells, 4C
dimeric human ACVR1 = biological target: T1, dimeric human ACVR1 (human, UniProt Q04771 21-123, limits assumed); assay: SPR Biacore T200, mAb captured by anti-human Fab, 100 nM dimeric receptor injected, 25C
T1 construct: ACVR1'; also called Human Receptor ACVR1
T1 sequence (looked up): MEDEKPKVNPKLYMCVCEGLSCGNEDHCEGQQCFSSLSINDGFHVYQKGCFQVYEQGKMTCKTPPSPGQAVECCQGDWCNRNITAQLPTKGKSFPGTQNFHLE
Procedure: (§1) ACVR1 mAbs were tested for cross-reactivity to a panel of bone morphogenic protein type 1 receptors including human and mouse ACVR1, BMPR1A, and BMPR1B, as well as ACVRL1 on a Biacore T200 as follows. In order to measure the specificity of ACVR1 mAbs, ACVR1 mAbs were captured with anti-human Fab immobilized on a CM5 chip. 100 nM or 10 nM of dimeric human or mouse ACVR1, ACVRL1, BMPR1A or BMPR1B were injected at 30 μL/min for 2 min (duplicate injections) and the experiment was performed at 25° C. Binding of different receptors to the captured mAb was determined using Scrubber 2.0c software.

dimeric human ACVRL1 = biological target: T2, dimeric human ACVRL1 (human, UniProt P37023 22-118, limits assumed); assay: as above
T2 construct: Construct and dimerising part not described; also called Human Receptor ACVRL1
T2 sequence (P37023 22-118 limits assumed): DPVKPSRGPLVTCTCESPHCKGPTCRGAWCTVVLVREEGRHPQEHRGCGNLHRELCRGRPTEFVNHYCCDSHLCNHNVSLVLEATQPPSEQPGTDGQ
Procedure: as §1

dimeric human BMPR1A = biological target: T3, dimeric human BMPR1A (human, UniProt P36894 24-152, limits assumed); assay: as above
T3 construct: Construct and dimerising part not described; also called Human Receptor BMPR1A
T3 sequence (P36894 24-152 limits assumed): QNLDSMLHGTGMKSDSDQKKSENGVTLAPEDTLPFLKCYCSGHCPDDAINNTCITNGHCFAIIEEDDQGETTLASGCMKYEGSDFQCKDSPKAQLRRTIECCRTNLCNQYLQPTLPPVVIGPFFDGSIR
Procedure: as §1

dimeric human BMPR1B = biological target: T4, dimeric human BMPR1B (human, UniProt O00238 14-126, limits assumed); assay: as above
T4 construct: Construct and dimerising part not described; also called Human Receptor BMPR1B
T4 sequence (looked up): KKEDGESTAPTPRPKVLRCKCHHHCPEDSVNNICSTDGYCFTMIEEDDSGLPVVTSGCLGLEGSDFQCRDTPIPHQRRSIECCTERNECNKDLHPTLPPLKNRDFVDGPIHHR
Procedure: as §1

dimeric mouse ACVR1 = biological target: T5, dimeric mouse ACVR1 (mouse, UniProt P37172 21-123, limits assumed); assay: as above
T5 construct: also called Mouse Receptor ACVR1
T5 sequence (looked up): T1 sequence (looked up) with M1V, P10Q
Procedure: as §1

dimeric mouse ACVRL1 = biological target: T6, dimeric mouse ACVRL1 (mouse, UniProt Q61288 23-119, limits assumed); assay: as above
T6 construct: Construct and dimerising part not described; also called Mouse Receptor ACVRL1
T6 sequence (looked up): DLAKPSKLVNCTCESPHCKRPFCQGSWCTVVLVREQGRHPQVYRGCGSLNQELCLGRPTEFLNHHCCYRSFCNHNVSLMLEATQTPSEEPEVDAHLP
Procedure: as §1

dimeric mouse BMPR1A = biological target: T7, dimeric mouse BMPR1A (mouse, UniProt P36895 24-152, limits assumed); assay: as above
T7 construct: Construct and dimerising part not described; also called Mouse Receptor BMPR1A
T7 sequence (P36895 24-152 limits assumed): as the sequence (P36894 24-152 limits assumed) above, with S16L, S21P, A74T counted along it
Procedure: as §1

dimeric mouse BMPR1B = biological target: T8, dimeric mouse BMPR1B (mouse, UniProt P36898 14-126, limits assumed); assay: as above
T8 construct: Construct and dimerising part not described; also called Mouse Receptor BMPR1B
T8 sequence (looked up): T4 sequence (looked up) with V16I, L51M, N102D, R113K
Procedure: as §1

[2] = biological target: full length human ACVR1 (amino acids 1-509, R206H, of accession #Q04771) on HEK293/BRE-luc/hACVR1-R206H-clone H2 cells (human) (UniProt Q04771); assay: flow cytometry, 70 nM antibody on HEK293/hACVR1-R206H cells, 4C
[3] = biological target: human ACVR1 extracellular domain expressed with a C-terminal myc-myc-hexahistidine tag (human); assay: BLI (Octet) cross-competition: hACVR1.mmh captured on anti-His biosensor, saturated with 1st mAb REGN 5166 (50 ug/mL), then dipped into 2nd mAb Isotype Control (50 ug/mL); white cell
[4] = biological target: human ACVR1 extracellular domain expressed with a C-terminal myc-myc-hexahistidine tag (human); assay: BLI (Octet) cross-competition: hACVR1.mmh captured on anti-His biosensor, saturated with 1st mAb REGN 5167 (50 ug/mL), then dipped into 2nd mAb Isotype Control (50 ug/mL); white cell
[5] = biological target: human ACVR1 extracellular domain expressed with a C-terminal myc-myc-hexahistidine tag (human); assay: BLI (Octet) cross-competition: hACVR1.mmh captured on anti-His biosensor, saturated with 1st mAb REGN 5168 (50 ug/mL), then dipped into 2nd mAb Isotype Control (50 ug/mL); white cell
[6] = biological target: human ACVR1 extracellular domain expressed with a C-terminal myc-myc-hexahistidine tag (human); assay: BLI (Octet) cross-competition: hACVR1.mmh captured on anti-His biosensor, first dipped into 1st mAb Isotype Control (50 ug/mL), then into 2nd mAb Isotype Control (50 ug/mL); dotted cell (self-self)
[7] = biological target: T9, human ACVR1 extracellular domain expressed with a C-terminal myc-myc-hexahistidine tag (human); assay: SPR, hACVR1.mmh captured by anti-myc antibody on CM5, Fab injected, 37C
T9 construct: also called hACVR1-mmh; hACVR1.mmh
T9 chain: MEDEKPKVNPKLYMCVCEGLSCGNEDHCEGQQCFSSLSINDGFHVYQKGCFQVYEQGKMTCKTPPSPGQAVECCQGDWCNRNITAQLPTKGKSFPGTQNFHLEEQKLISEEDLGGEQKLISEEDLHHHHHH
Procedure: (§2) In order to measure the binding constants of ACVR1 Fabs, hACVR1.mmh was captured with a myc antibody (REGN642) immobilized on a CM5 chip. Different concentrations of ACVR1 Fabs were injected over hACVR1.mmh at 37° C. Binding rate constants and equilibrium dissociation rate constants were calculated by fitting data using 1:1 Langmuir binding model (Scrubber 2.0c).

[8] = biological target: T10, mouse ACVR1 extracellular domain expressed with a C-terminal myc-myc-hexahistidine tag (mouse); assay: SPR, mACVR1.mmh captured by anti-myc antibody on CM5, Fab injected, 37C
T10 construct: also called mACVR1-mmh; mACVR1.mmh
T10 chain: T9 chain with M1V, P10Q
Procedure: as §2, with “mACVR1.mmh” for “hACVR1.mmh”, “(REGN 642)” for “(REGN642)”

Row | Molecule | Kd [7] | koff [7] | kon [7] | t1/2 [7] | Kd [8] | koff [8] | kon [8] | t1/2 [8] | also measured
1 | Alexa Fluor-647 conjugated secondary antibody (Jackson ImmunoResearch, anti-human #109-607-003) | – | – | – | – | – | – | – | – | MFI-Normalized to Unstained Control [1]: 1 fold
2 | Isotype control (Example 4) (antibody) | – | – | – | – | – | – | – | – | 100 nM Human Receptor Binding (dimeric human ACVR1): 11 RU; 100 nM Human Receptor Binding (dimeric human ACVRL1): 2 RU; 100 nM Human Receptor Binding (dimeric human BMPR1A): 1 RU; 100 nM Human Receptor Binding (dimeric human BMPR1B): 19 RU; 100 nM Mouse Receptor Binding (dimeric mouse ACVR1): 8 RU; 100 nM Mouse Receptor Binding (dimeric mouse ACVRL1): 2 RU; 100 nM Mouse Receptor Binding (dimeric mouse BMPR1A): 7 RU; 100 nM Mouse Receptor Binding (dimeric mouse BMPR1B): 1 RU
3 | human IgG control antibody | – | – | – | – | – | – | – | – | MFI-Normalized to Unstained Control [2]: 3 fold
4 | isotype-matched negative control (Example 5) (antibody) | – | – | – | – | – | – | – | – | wavelength shift of 2nd mAb binding [3]: 0.05 nm; wavelength shift of 2nd mAb binding [4]: 0.05 nm; wavelength shift of 2nd mAb binding [5]: 0.04 nm; wavelength shift of 2nd mAb binding [6]: 0.07 nm
5 | B1 | 170 pM | 9.36e-05 s⁻¹ | 549000 M⁻¹ s⁻¹ | 2.05 h | 178 pM | 9.72e-05 s⁻¹ | 545000 M⁻¹ s⁻¹ | 1.98 h | –
6 | B2 | 154 pM | 0.000106 s⁻¹ | 690000 M⁻¹ s⁻¹ | 1.82 h | 160 pM | 0.000105 s⁻¹ | 653000 M⁻¹ s⁻¹ | 1.83 h | –

— patent US20240150474A1 (Regeneron, published 2024)
